# Assay results published in patent US20230226096A1 (Orna Therapeutics, Inc., priority 2020, published 2023).
# B1: Boosepivirus A (nucleic acid)
# DNA: TTGAAAGACCTCGGCATATATCGTTGTCACAACGGTATATGTCGAGATCTTTCTCCCCACCCCCTCCAATTCCCTTTTCCCCCTCTTGCAACTTAGAAGTTTGTACACACAGGGCAATAGGATACGTGATCCAGCCAGGACACGTGAGCTCAAGCACTTCTGTTTCCCCGTCCCCTTCACGTACTACGGGAATGTTAGTAATTTGTGTGCACTTTAGTAAGGTTGATCCGGGATTAACCCCAAATCCCAGAAACTGGTGATGAGCGTTACCACCCCCGCCGGGCGACCGGAAGGTTTCGCTGCGTTGGCACCAGGGCTTCGGCACCAGAAAAAGGTAAAGCAAATGAAGGCGCTACTGTGCTACGAGAAGTTTCCTCCAGGCCCCTGAATGCGGCTAATCCTAACCAGTGATCCACCGGTGCAAAACCATGTACTAGGTGGTCGTAACGCGCAAGTCGCTGGCGGAACCGACTACTTTGGGTGTCCTGTGTTTCCATATTTTATTTTATTCAATTTTATGGTGACAAGAGTAAAGAGATACAGATTTGCAGCC
# modifications: Boosepivirus A
# B2: Phacovirus Pf-CHK1 (nucleic acid)
# DNA: GTGTGTCATTTCTCCCCTCCCCCTCCCAAACCTTTTCCCCCTCTAATCGGATTGATTAACCCGGTTAAAGATGATTAATGGTTTGTGAGTTGATATGATGGCCCGGCATTGAATCCGGGAATTCTTAAGTAATGGAATTGCATCCAATATGAAAGTGAGTGTGGCAAGCTCACAAGTAGTACTTGGCTCTGCCCATTATTTGAGGACCAACTCTTCTTGACTACAATGTGTTTAAAGTAAACTGGACCACATTGTGTATCCAGACAACTCCATTTGATAATGTACGCTGGAAACGTTTTCAGTGCATAGGGTCCTAAAGTGGTGCTGAAATATTGCAAGCTCAATGGGATACTGAACGCTGAAAACCGCCGCTGTTATCATATGGGCCCCTAGTGGGTAAATGTTGGCTTTAGGCATATACTGCTTGGGAATGCAGTACTGGTTGTAGACAGGGTGATAGCCTACCGGCTGGCGTAGTTGAGTTGGTATAGCCAGTTGATTGCCAT
# B3: Cadicivirus B (nucleic acid)
# DNA: CACCAACCCTTGACCTGTAATGTCAGTGGACAGAGTGCTCCTCTGTTCCCGGTTACCGTGTTCCAGGACACGATTGTAATCCTGCGCCTCACCAGCGCTGCGTGCACGTCTGCATAAGGAAACGTGCCTTCCCCATGTCTCTATCAATTCTTTGGTGAGTGACCGCCCTAGTTGCTCATCCTATGGGATTCTTCTCTCATGGGTTCTTTGTGGCATGCGAATGTCACCTTAATTGGAGGTCTTTAATTAGATATCCTTTCTTCATCTTTGATATGAGTGTCGGAATTTGATTCCTAGTCTCTGCAAAACAACCCCACTTGATGAATTCAACTTTTCAACCGCACAAACATAATCAGGTTTTTAAATTGAATGTTTCTAAATTCTAAATTTAGTTTATTTAAGTAGTTTGCCATCTTGACTCGATGTAAAATTGTCATACAAGTCTTCTTTTCTTTTCTTTACACTTTGAAGTTTGCACTTAGCAGTCGTTCTGCACAGCTTTCGAGTTTTGTTTGATCGACATCGCAACTTCCACCCACCTCTCTTTTTCTAGTGTTGAATGCGGCTAATCCTAACCCGAGAGCAATAAACCCAGGTTTATTGTCGTAACGCGCAAGTCTTGGACGGAACCGACTATACACACACCTCTTTACCCTTTAGTACACCCTTGGTACG
# modifications: Cadicivirus B
# B4: Felipivirus 127F (nucleic acid, listed as Felipivirus sp.)
# DNA: GATGTCGGATGACGGCTGGCCACCGGGGAAAAACGGCAAATGTGCACCACCTCTGCAACCCACGCCGACCACGTTTAACCATGGCGTTAGTAGGAGTGGACCACTGCAGTGGGCTCTGGTGTGCGACAGTCAGTGGTAGAGTAGACAGTCCTGACTGGGCAATGGGACCGCGTTGCGTATCCCTAGGTGGCATCGAGATTCCTCTGCTACCCACCAGCGTGGACTCCTATGGGGGGGGCCCCATAGGCTAGGTCTATACTGCCTGATAGGGTCGCGGCTGGTCGACCACTGACTGTATAACCAGTTGTAACTCACT
# B5: HRVC3 QPM (nucleic acid, listed as Rhinovirus sp.)
# DNA: TTAAAGCTGGATCATGGTTGTTCCCACCATGATTACCCACGCGGTGCAGTGGTCTTGTATTACGGTACATTTCCATACCAGTTTTATACACCCCACCCCGAAACTCATAGAAGTTTGTACACAATGACCAATAGGTGGTGGCCATCCAGGTCGCTAATGGTCAAGCACTTCTGTTTCCCCGGCACCCTTGTATACGCTTCACCCGAGGCGAAAAATGAGGTTGTCGTTATCCGCAAAGTGCCTACGAAAAGCCTAGTAACACTTTGAAAACCCATGGTTGGTCGCTCAGCTGTTTACCCAACAGTAGACCTGGCAGATGAGGCTAGACATTCCCCACCAGCGATGGTGGTCTAGCCTGCGTGGCTGCCTGCACACCCTGCCGGGTGTGAAGCCAGAAAGTGGACAAGGTGTGAAGAGCCTATTGTGCTCACTTTGAGTCCTCCGGCCCCTGAATGTGGCTAACCCTAACCCCGTAGCTGTTGCATGTAACCCAACATGTATGCAGTCGTAATGGGCAACTATGGGATGGGACCAACTACTTTGGGTGTCCGTGTTTCCTGTTTTACTTTTTCATTGCTTATGGTGACAATTGTATCTGATACACTTGTTACC
# B6: Parabovirus C (nucleic acid)
# DNA: GATGTATCCCCATCCCCCAGTGTGTATGCCATACTGCATAGCTCGCCTATGCCCTATGGATTCACAACCCTTTCATATACCCTCCCTACCCAACCCCGTAACCACATGCTTTACTCCGCTTGGGGTTTTGCGGCCCCATGTTGTGACGAAATGGCTACGCAATCAATGCGGCTAATGGGGCCTGCCGCTTTTAAGTGGCCCCAGTTAGAAGTTTATGCACACCCGCCCATTAGGAGGCCACCAGCCAGGTGGTCAGAGGGCAAGCACTTCTGTTTCCCCGGTGAAGTTTGATAAGCTGTGCCCACGGCTGAAGCAGACAGATCCGTTACCCGCCTCACTACTACGAGACGGCTAGTAGTGTGTAATATCCGAATTTCATTGATCCGGGTGTTCCCCCCACCCAGAAACGTGTGATGAGGAGCGGCACCCCTCCTATGGCAACATAGGGCCTCTCCTGCGCTGGCACACGGGCTCTATGAGCATGAAATCAGGAGAAAGTCACACGAAGACCTTATTGTGCTAGTGTTGATTCCTCCGCCCCCCTGAATGCGGCTAATCCCAACTCCGGAGCGCCCGCTGGCAAACCCGCCAGAAGAGCGTCGTAATGCGTAAGTCTGGAGCGGAACCGACTACTTTGGGTGTGGCGTGTTTCCTTTATTTCCTTTGTATTTGTAT
# modifications: Parabovirus C
# B7: Boosepivirus B (nucleic acid)
# DNA: TTTTCTCCCCTCCCCCTCCAACTACCTTTTCCCCCTCTTGTAACGCTAGAAGTTTGTGCAAACCGCCTGTAGGGTACTGCAATCCAGCAGTGCATAGGCTAAGCTTTTCTTGTTACCCCACCCCACATTATACTGAGGAGGATTGTGAAATTGTGTTAGTATGGGTTAGTAGCGGTGACCCGGGTAACCCCAACCCAGAAACTCACGGATGAGATGAACAGGACCCCACATGGTAACGTGTGTGTTCGTCTGCCCCGCAAGGTGAGGCCGTGAGAGCTTTGCACGCGAAAACCTTGAAAACCCAAAAGTACCTTGAGCTCTTCGCTATTTTGTGTTTCCTCCAGGACCCTGAATGCGGCTAAACCTAACCCGCGATCCGCACGTAGCAACCCAGCTAGAGTGTGGTCGTAATGCGCAAGTTGCGGGCGGTACCGACTACTTTGGTGTTCCTGTGTTTCCTTTATTTTATTTTGAATTTTTATGGTGACAACAGCTAGAAAATAAGAGTGAAC
# modifications: Boosepivirus B
# B8: Rabovirus A NYC-B10 (nucleic acid)
# DNA: CCGACCCCACTGGTCGAAGGCCACTTGGCAATAAGACTGGTGGAACAAGGTCGCCTGTAGTTGATTGGAACCTTCTTTCTAATGACTTATGTCAGCGGTGCTACTCACACCGTAACTCTCCTACCCTATCCCCACGCTTGTGGAACTAGGAGGGGATGAGTGATTCAAGTAAGTACTGTCAGAATGGTGAAAATAATCTGATTCTGAAACGCTATGGATCCATCGAAAGATGGGGCTACACGCCTGCGGAACAACACATGGTAACATGTGCCCCAGGGGCCGAAAGCCACGGTGATAGGATCACCCGTGTAGTTTGAGATCATATCAATGTTCATAGTCTAGTAAGATGATTTGAAATCTAACTGGTCTGATGGCTAACTGCTTGTCTTATTGCGGCCTAAGGATGTCCTGCAGGTACCTTTAGAGAACCTTAAGAGACTATTGATCTGAGCAGGAGCCAAGGTGGTCTTTCCCAGCCTTGGTTAAAAAGCGTCTAAGCCGCGGCAGGGGGCGGGAGGCCCCCTTTCCTCCCAAACTATAATATAGATTGT
# modifications: Rabovirus A
# B9: Parabovirus A3 (nucleic acid, listed as Parabovirus sp.)
# DNA: ACCGTTACGCACCACTCAGTTGGTGTTTGGTGGCACCAATGATGGAACAAAAGGCTACACCACTTGGGCTACGGCCCGCGCCACCTTGTGGCGCAAAGACATTAGAAGAATAGCATACCGCCCACTAGGGCCCTGCAGCCAGCAGGGTAACGGGCAAGCACTTCTGTCTCCCCGGTAGAACGGTATAGGCTGTACCCACGGCCGAAAACTGAACTATCGTTACCCGACTCCGTACTTCGCAAAGCTTAGTAGGAAACTGGAAAGTTCGAGTTATTGACCCGGAGTGTTCCCCCCACTCCAGAAACGCGTGATGAGGGTTGCCACCCCGACCATGGCGACATGGTGGGCATCCCTGCGCTGGCACGCGGCCTCTAAGAGGATAACTCGCTCCTACTGGTAACCGAAGAGCCCCGTGAGCTACGGTTTATTCCTCCGCCTCCCTGAATGCGGCTAATCCTAACCCATGAGCAGTTGCCATAGATCCATATGGTGGACTGTCGTAACGCGTAAGTTGTGGGCGGAACCGACTACTTTGGGATGGCGTGTTTCCTTGTTTTCTCCATTTGTTGTTGTATGGTGACAAGTTATAGATCTCGATCTATAGCGTTTCTTGAGAGATTTCCAAACATTTATTCAAGTCGTACAATTCTTGTGTTTAAGCAGTACAGTGTAAGG
# B10: Parabovirus B (nucleic acid)
# DNA: AACCCATAATCCATTGTCCATCAATGTTTTATGGGGGGGACCCTTTCTCCCCTCCCCCTCCAAATACCTTTTACCCCTCTGTAACCAAGAGTGTGCAAAATCTATTTACTAGCCCAGAATTGCGGCTTCTGGGGAGGTTTATTCCTCATGCCTAACAAGATGTTACGCAAACTCCGGGCTACGGCCCTGGGCTTTTGCCCTAAAGATTTAGAAGTTTACACTATCGTCCAACAGGAGGACAACAAACCAGTTGTTCTAAGGACAAGCACTTCTGTTTCCCCGGTGAGACTGGATAGACTGTACCCACGGTTGAAACTGGTTGATCCGTTACCCGACTCACTACTTCGAGAAGATTAGTAGGAAACTGTGAAACTGATTCCATTGATCCGGATACTTTCCCCGTATCCAGAAACTACTGATGAGGGTTGACTTCCCGACTACGGCGACGTAGTGTCATCCCTGCGCTGGCAGTAGGCCTCTTTGAGGATGGAAGATGTGGATCGGTAACCGAAGGTCCTATTGAGCTAGTGTTTATACCTCCGGCCTCCTGAATGCGGCTAATCCTAACCCATGATCTAGTGCTCACAAACCAGTGAGTAGCTAGTCGTAACGCGTAAGTCGTGGGCGGAACCGACTACTTTGGAGTGACCGTGTTTCCTATTTTACTTTTGTTTG
# modifications: Parabovirus B
# System: HEK293 cells
# Format: cell-based, human
# Details: luminescence from secreted Gluc in supernatant 24 hours after transfection of HEK293 cells; circular RNA encoding Gluc with the named IRES (UTR truncated to 675 nt)
row,Molecule,Expression
1,B1,7.07E+07
2,B2,5.87E+06
3,B3,2.10E+05
4,B4,8.92E+06
5,B5,1.64E+07
6,B6,1.83E+07
7,B7,1.17E+08
8,B8,1.24E+06
9,B9,2.44E+08
10,B10,7.85E+06
